According to doi:10.1101/2022.04.14.488316 (bioRxiv, 2022):
No end group written: not given here.

How the values were obtained:
Experiment in all cases: fluorescence polarisation
[1] = molecular target: VHL-ElonginC-ElonginB (VCB) with VHL P71I (UniProt P40337;Q15369;Q15370, P71I)
[2] = molecular target: VHL-ElonginC-ElonginB (VCB) with VHL N67Q (UniProt P40337;Q15369;Q15370, N67Q)
[3] = molecular target: VHL-ElonginC-ElonginB (VCB), wild type (UniProt P40337;Q15369;Q15370)

Measured: binding result

Chain of VHL-ElonginC-ElonginB (VCB) with VHL P71I (P40337 54-213 P71I, chain 1 of 3): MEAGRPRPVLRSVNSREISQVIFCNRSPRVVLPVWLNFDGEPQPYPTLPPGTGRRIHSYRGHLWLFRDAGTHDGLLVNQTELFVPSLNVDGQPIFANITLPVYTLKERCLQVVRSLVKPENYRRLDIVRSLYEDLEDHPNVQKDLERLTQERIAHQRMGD
Chain of VHL-ElonginC-ElonginB (VCB) with VHL P71I (Q15369 17-112, chain 2 of 3): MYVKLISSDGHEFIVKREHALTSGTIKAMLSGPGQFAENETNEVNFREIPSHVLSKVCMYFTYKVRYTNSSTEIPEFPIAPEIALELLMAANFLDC
Chain of VHL-ElonginC-ElonginB (VCB) with VHL P71I (Q15370 1-104, chain 3 of 3): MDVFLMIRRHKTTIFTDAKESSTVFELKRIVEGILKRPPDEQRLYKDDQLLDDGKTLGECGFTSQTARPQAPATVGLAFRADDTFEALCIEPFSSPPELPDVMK
Chain of VHL-ElonginC-ElonginB (VCB) with VHL N67Q (P40337 54-213 N67Q, chain 1 of 3): as the sequence (P40337 54-213 P71I, chain 1 of 3) above, with N14Q, I18P counted along it
Chain of VHL-ElonginC-ElonginB (VCB) with VHL N67Q (Q15369 17-112, chain 2 of 3): as the sequence (Q15369 17-112, chain 2 of 3) above
Chain of VHL-ElonginC-ElonginB (VCB) with VHL N67Q (Q15370 1-104, chain 3 of 3): as the sequence (Q15370 1-104, chain 3 of 3) above
Chain of VHL-ElonginC-ElonginB (VCB), wild type (P40337 54-213, chain 1 of 3): as the sequence (P40337 54-213 P71I, chain 1 of 3) above, with I18P counted along it
Chain of VHL-ElonginC-ElonginB (VCB), wild type (Q15369 17-112, chain 2 of 3): as the sequence (Q15369 17-112, chain 2 of 3) above
Chain of VHL-ElonginC-ElonginB (VCB), wild type (Q15370 1-104, chain 3 of 3): as the sequence (Q15370 1-104, chain 3 of 3) above

B1: 5,6-carboxyfluorescein (FAM)-labeled HIF-1α peptide JC9 (peptide)
peptide: DEALAPYIPMDDDFQLRSF
modifications: also: FAM label, site not given here
binds: all assays above
